# According to US20230226096A1 (Orna Therapeutics, Inc., priority 2020, published 2023):
# System: HEK293 cells
# Assay type: cell-based, human
# Conditions: luminescence from secreted Gluc in supernatant 24 hours after transfection of HEK293 cells; circular RNA encoding Gluc with the named IRES (UTR truncated to 675 nt)
row,Molecule,Expression
1,Rhimavirus A (nucleic acid) DNA: CGAATTCCGGACATCTCCTTTCGGGGGCGAGCGTCACCGTGCCCCTCATGGAGGCAACTGTGCCTCTAATCGGTGACCCACTGAGAAAATTTTCTTTCTACGTGGCTAAACAATGCAACTTTATAATAACACAAATTTAATGCTTAATCTTAACACCAAAGATTTGAACATATGTTTGGAAAGTGGCACACTTCAAACATTGCATAGTTGCTAGGGGTGAAGTCCCTTTAAGGGGTTGCAGAGGATCTTTCCTCTTTATGAGCGGCTAGGAGTATCTTCTTGATATTATGTGGTCGTGCAACTCACTTCCCAGATGTATGACGGTGTACTAAGCGATTGGAACTAGTCATAACCTCTTTGAATTTTGGTATTGCGAGTCTAGCAGGGGGATATTTACCGCTAAAGGGTGACACACTCGTGAGGGTGGCCTTTGGTGTGTGTATATTTATTCCGCCCATCTTGCATGGGGTGCTAAAATTCTAATGCTGTGAAATAACCATTTTCTGAATACATTCTCTACATTTGGAGTCAAATATGAGGAATGCCACTCAGGTACCCTTGACATGATCTTGGATCTGAGAGTGGGCTAATTATCTAATTATTTGGCGACTTTCTAAAATCTTCTGTTTTTAGTGGTGACAATTTATGGTTATAAA,8.42E+05
2,"Hepacivirus I (nucleic acid, Hepacivirus I) DNA: CAGGGTTTCGACCCTGGCCCGGATACCTATCGCCTTACGCCGAAAGGTAACGAGTAGGAGTCGGGTCCCCAGGCCCTTACCGCCACCAAGCCAGGTGGGGAGGTATGGGAGCCGGGGGGTGCAGCTGGTAGCTCCATGGGGGACGCCCCGTGAGCGGATGCTGCATCGATACCGGGTTAGCTCTCTGGGAGAGCGGCACTTGACACCACGAATCCGGGAACCGGACAATCGCCGGCGTGGGACGCGTTGCCTCCGTGGCCGAGCAATTTGGCATGCCCGTGGTGAAGAGTGATGGTGGGGGGGGGCCCCCCTTCCAGTACCGTACTGCCTGATAGGGTCTTGCCTCAAGCCCAGAGAGTCGAGGCTGAAAACCGCCATC",7.50E+04
3,"Avisivirus Pf-CHK1 (nucleic acid, listed as Avisivirus sp.) DNA: CATTCCCCTTTCCCCAGCCATGGGTTAAATGGCCCCTCACCAGGTTCGGTGCTGTCTAGGCTTCCAGTAAAGAAGTCAACCGAGCATTGAACAAAACCTCAGTGGGTATGGTAGTTAACCCCGTCCACTGGACAACTTTGTCCTCTTAAAAGTGGATCAATCCACCCCAACTCCCCCCCTAGCCACCTGAGCCATGGTGGATAGCAGTGACGAAACTAGGGACCCCAATACCTCTAGTGCCAAGAGAATTCCCCCCTCGCGAGAGGTGCTCTTGGGCCCGAAAGGCTAGTTGGCAGGGTGAAGTGAAGGAAGCTGCTAGCGTGGCAACCTTAAGCGTAGCCCGAAGCTGACCTTAGAGGTTAACCCTAGTGGACCACTGGATGAAGCTGTGGAGGTGGTGGATAGGAAAGTTGGCCACTTGTGAGTAGATGCCCAGAAGGCATAAGGCTGATCTGGGGCCAGTGACTATACCGTTCCGGTAAACCTGGTATAAAAACCATGAAAGCAAGTGGGTTTAAAATTTCTTCTAATTCCTTCATTTCAGTAGTGATAACTGGCAGA",1.19E+05
4,"Rosavirus 2 GA7403 (nucleic acid, listed as Rosavirus sp.) DNA: CCAGGCATGGCGTTAAACATGCATTCCCTTCCCCTAGTAACCTCCCTTCGCCCCTTCCCCACGTTGTACCCCCTCCGAGATGGCTGCTAAGGCGCTTGCTGCTACAGCAGTCTCGTGTTTCGGGTGTTATAAGTGCTTTCTTTTCCACTCCACTCCCTGCCTATGGGGAGCGGAACGGCCTTGTCTCGGTCGTTGCTTCTTGCAGATCTTCACCCCTCCAGGCTTTCTGGACTCGCCAGGGGTGGAGTAGTAGGCGCACTGTCTAAGTGAAGGTAGCAGTGTTGTTGGCGAAGAGTTGTGGACCTACTTTGAGTTTGTAGCGATCATCCAGAGCTAGCGGATCTCCCCACGCGGTAACGCGTGCCTCTAGGCCCAAAAGGCACGGTGTTCACAGCACCCTTTGGATGGCGGGGGTGCCCCCCTCCGCACTTAAAGTAGAAAAACAGCTTAGTAGTCAAATAACATGGCTTTCCTCAAGCATTCAGTGCTACATGGGACTGAAGGATGCCCAGAAGGTACCCGCAGGCAACGATAAGCTCACTGTGGATCTGATCTGGGGCCCTGGGCCAGGTGCTATACACCTGGTTAAAACCAAATCTGGTAGTCAGGGTTAAAAAACGTCTAAGTCCCACCCCCCCGGGGACGGGGGGTTCCCTTAAACCCTCAACTGACACC",5.05E+06
5,Icavirus (nucleic acid) DNA: CGAAGTTTAAGCTAAGCACCCTCGGGCGTTCCCGGATTATGTGATCACATCAATTTGATGGCTGGTCACCACGCAACGCCTGGAGAGATACTCTTACTTTTCTCTTAAGATCCCCGGTCATTTGACGCTTGTAGGATGATAGGGTTATTTTCCACTATAAATACTTTCATACTCTTGGATGTTCTATATCCAAGACGGGAGGACCTACCCCGTACCCCTTAGAGGTGAGATGCCAAGAACAGGCCCTTTCTGTTCTCTCGACAATGGCATCATAGGCAACAAGCATCACACCAAGATTGCTAAGTTTTGTTAAGAGTTCTTCAAGCTATAGGGTGGCTGTAGCGACCTTCTGATGCCTGCGGATTTCCCCACGGAGCGATCCGTGCCACAGGGGCCAAAAGCCACGGCTAACGCCCATCAGGAGCGGCACTTACCCCGTGCCCCACCCTTGAAACTTGAATGTTCACACTGGCTTCTCTCGGCTTTCTGAACTGTCTGCTTGTTGGGGCCCCGAAGGATGCCCTGGAGGTACCCCATTTTATGGGATCTGACCAGGGGACACCTCAGCTCTCTAAGTTGCTGGTGTTTAAAAAACGTCTAAGGGCCCCCACCCCTTAGGTGGAGGGATCCACCTTTCCTTTATTTTTTAAAACTCTTTTATGGTCACAATTGTTT,4.41E+06
6,"Bat Hp-betacoronavirus (nucleic acid, Bat Hp-betacoronavirus) DNA: TTAAGCTTCGGCTTGTTGCATAGGACCGGAAAGGTACTATCTACCCTAACTCTTGTAGTTAGACTCTCTAAACGAACTTTAAAACTGGTTGTGTCCTTCAGTAGTCTGTATGGCCATTGGAGGCACACCGGTAATTATCAAATACTAAGAAGATTCATAGTACATCCTTGTCTAGCTTTTGGTTGGCAGTGAGCCTACGGTTTCGTCCGTGTCGCTCACAATTATCCACACAGTAGGTTTCGTCCGCTGTGGTTGAGTTGCTAGTCCGTTGCTGTTTCGTCAGCCATCTACAACTCGACACC",8.47E+04
7,"Hepacivirus J (nucleic acid, Hepacivirus J) DNA: GCCGCTCCCGAAAGGGAGTCCGGCGCGTCATCCCACTCCGAGGAGTGGGGTGGCGTCCCCGTGTGCCGGGGAACCATGAAGCCTAAGGGCATCCACATTTTAGAATGAACTTGAAGCTTCGTTTCGCTGGCCGGAAAGTCCTGGGTTCCCATGGCCAGGGTTCCGCAGGTGGGTAAATCCCGGTGGGGTTCCATCCAGGATATACGGCAGGCGGGCGTAGTCCGGCGGTTCGGACGACGTGTGGGTCGCCTACGGTGGATTGTTCACAGGATGGGCACTCCGGTGTGAATAGGCCCCGTCAGGGTGCGCTGACGTTAAACTCAGGCCTTGCCTGGTGTTCGGGGAGGATTGCAGGGCCACGCCGCCTCTAAGGGCCGTATGGCACAGTACTTCTTCGGGCGGGTTGTCAAGGCCCTCCAACGCGACACCAGTGCCTCGGCAGGCATGGGGCCACCCAGCTCGGCGTCCCGCACACAGACGGCGTAGGGGAAAATCAGCAATGTGACCCCGGGTGGCATTTTCCTTCTCTCTACTTCCATGCATGATCAACCGCAATC",7.65E+04
8,Basella alba endornavirus (nucleic acid) DNA: GGAATATGGCTAATCGGCTTATTCTAATCAAACGCAAAAGACTTATGACACAGACCGGACCTGAACGAGGTGATAAAACACCTCGTTCAGGTTCAAAACGTAGAAGATTCATTCCTCCGATTAGAAATACAACTACGTCTAAGCACGATAGAGATGGTATCAAGATCGGTTTTAGACCACGAGAAAATCGGCAAATGAAAGTACAAGTTGGGTGGTTTAAATTACCAAGAACAGTAACATTCAAGAACAACGGCAACCCGTTTGTTACCTCATTTCGTAAATTGTTTAGAAGTAACAAAGATAAATTATTTAATGGTGGGAAGAACCTAAGTACAGTACCAGCCAGAAGTAGTGAAATGACAGAAATGTTTATGTTCATGTCCACGCTAGAGGGCCAATTGTCAATCCAAGATCGAGATCCAAAAATAATCAATAAGTCTATATACATGATAGAGGTA,7.65E+04
9,"Hepacivirus B (nucleic acid, Hepacivirus B) DNA: ACCACAAACACTCCAGTTTGTTACACTCCGCTAGGAATGCTCCTGGAGCACCCCCCCTAGCAGGGCGTGGGGGATTTCCCCTGCCCGTCTGCAGAAGGGTGGAGCCAACCACCTTAGTATGTAGGCGGCGGGACTCATGACGCTCGCGTGATGACAAGCGCCAAGCTTGACTTGGATGGCCCTGATGGGCGTTCATGGGTTCGGTGGTGGTGGCGCTTTAGGCAGCCTCCACGCCCACCACCTCCCAGATAGAGCGGCGGCACTGTAGGGAAGACCGGGGACCGGTCACTACCAAGGACGCAGACCTCTTTTTGAGTATCACGCCTCCGGAAGTAGTTGGGCAAGCCCACCTATATGTGTTGGGATGGTTGGGGTTAGCCATCCATACCGTACTGCCTGATAGGGTCCTTGCGAGGGGATCTGGGAGTCTCGTAGACCGTAGCAC",8.84E+04
10,"Antarctic penguin virus A (nucleic acid, chemistry not fully specified; the letters are possibly those of the target site) DNA: CTAGGAGACTACGCAGTGGGATAAGATGACTATGATGTCGTACGGGCAGAAGCCAGTACAGTCGAAGTCGAGACCGACGTCGAGGATTTGACTCTGCCTGACCTAGTGCCATC",8.42E+04
11,"Ball python nidovirus (nucleic acid, Ball python nidovirus) DNA: CCCCTTCACCCATAGGCACTAGGAGAACAGGATAACCCCTAACGGGGCATCCTGCCTGTGACCTTTCAGATTCGCTAGTTAGATATCTTCACAGACTCTGCTAGGCTTCTGACCCAGTCCGTTCCCAAAGTCCGTTACCGCCCGAGTAGCGCTTAGGCGCGAAAGGGACGGAAGTACCTCCAGTAAGCGAAAGCTGAAGTAAGGGAAATACGGCAAGACTAACTTGTTAGTCTTACAGTGTGGATAACCTGGTAGTTATCCCCGACAAGAGACCTGACTCGATGTGAAAACATCCAACTAGGTTGGCTTCAAACTAGCTACAGGCAGGATATCCCCCAACGGGGCCTCCAAGGAATCGAGAACCAACCCTCATTCCACGTCTGTAGTAAGCAAAAACAGGGGCGATCTTCACCGACACCTCTCACCACAGAGCACACCAACCTCTGTGAAGCCAATTTCCTCGTCCAAGGACAGGTTATTGAGGGTCAACTTTCTTCCGACCAGAAGAAGGGATTTCCTACCAAAAGAAAAACCAAATCCACCAACACCACAAGGTAAAACAACAACTTGTGAAGCCAATACTTAGTCAAAGACTAACTATTGAGGGTCAACTTTCTCTTCAATAGAGAAGGGATTTCCTGGTAAAACAAATAACAACAACTAACATCAGCAACT",8.25E+04
